The target of the assay is Recombinant human IGF-II R (CI-MPR) (Homo sapiens, UniProt P11717). Kind of assay: SPR binding to immobilized CI-MPR. The note with it: 25° C., three independent experiments.

Results on one molecule are retold here after patent publication US20240218342A1, “SITE-SPECIFIC GLYCAN REMODELING OF LYSOSOMAL ENZYMES AND APPLICATIONS THEREOF” (priority 2021, published 2024).

Recombinant human IGF-II R (CI-MPR), sequence (P11717 41-2491): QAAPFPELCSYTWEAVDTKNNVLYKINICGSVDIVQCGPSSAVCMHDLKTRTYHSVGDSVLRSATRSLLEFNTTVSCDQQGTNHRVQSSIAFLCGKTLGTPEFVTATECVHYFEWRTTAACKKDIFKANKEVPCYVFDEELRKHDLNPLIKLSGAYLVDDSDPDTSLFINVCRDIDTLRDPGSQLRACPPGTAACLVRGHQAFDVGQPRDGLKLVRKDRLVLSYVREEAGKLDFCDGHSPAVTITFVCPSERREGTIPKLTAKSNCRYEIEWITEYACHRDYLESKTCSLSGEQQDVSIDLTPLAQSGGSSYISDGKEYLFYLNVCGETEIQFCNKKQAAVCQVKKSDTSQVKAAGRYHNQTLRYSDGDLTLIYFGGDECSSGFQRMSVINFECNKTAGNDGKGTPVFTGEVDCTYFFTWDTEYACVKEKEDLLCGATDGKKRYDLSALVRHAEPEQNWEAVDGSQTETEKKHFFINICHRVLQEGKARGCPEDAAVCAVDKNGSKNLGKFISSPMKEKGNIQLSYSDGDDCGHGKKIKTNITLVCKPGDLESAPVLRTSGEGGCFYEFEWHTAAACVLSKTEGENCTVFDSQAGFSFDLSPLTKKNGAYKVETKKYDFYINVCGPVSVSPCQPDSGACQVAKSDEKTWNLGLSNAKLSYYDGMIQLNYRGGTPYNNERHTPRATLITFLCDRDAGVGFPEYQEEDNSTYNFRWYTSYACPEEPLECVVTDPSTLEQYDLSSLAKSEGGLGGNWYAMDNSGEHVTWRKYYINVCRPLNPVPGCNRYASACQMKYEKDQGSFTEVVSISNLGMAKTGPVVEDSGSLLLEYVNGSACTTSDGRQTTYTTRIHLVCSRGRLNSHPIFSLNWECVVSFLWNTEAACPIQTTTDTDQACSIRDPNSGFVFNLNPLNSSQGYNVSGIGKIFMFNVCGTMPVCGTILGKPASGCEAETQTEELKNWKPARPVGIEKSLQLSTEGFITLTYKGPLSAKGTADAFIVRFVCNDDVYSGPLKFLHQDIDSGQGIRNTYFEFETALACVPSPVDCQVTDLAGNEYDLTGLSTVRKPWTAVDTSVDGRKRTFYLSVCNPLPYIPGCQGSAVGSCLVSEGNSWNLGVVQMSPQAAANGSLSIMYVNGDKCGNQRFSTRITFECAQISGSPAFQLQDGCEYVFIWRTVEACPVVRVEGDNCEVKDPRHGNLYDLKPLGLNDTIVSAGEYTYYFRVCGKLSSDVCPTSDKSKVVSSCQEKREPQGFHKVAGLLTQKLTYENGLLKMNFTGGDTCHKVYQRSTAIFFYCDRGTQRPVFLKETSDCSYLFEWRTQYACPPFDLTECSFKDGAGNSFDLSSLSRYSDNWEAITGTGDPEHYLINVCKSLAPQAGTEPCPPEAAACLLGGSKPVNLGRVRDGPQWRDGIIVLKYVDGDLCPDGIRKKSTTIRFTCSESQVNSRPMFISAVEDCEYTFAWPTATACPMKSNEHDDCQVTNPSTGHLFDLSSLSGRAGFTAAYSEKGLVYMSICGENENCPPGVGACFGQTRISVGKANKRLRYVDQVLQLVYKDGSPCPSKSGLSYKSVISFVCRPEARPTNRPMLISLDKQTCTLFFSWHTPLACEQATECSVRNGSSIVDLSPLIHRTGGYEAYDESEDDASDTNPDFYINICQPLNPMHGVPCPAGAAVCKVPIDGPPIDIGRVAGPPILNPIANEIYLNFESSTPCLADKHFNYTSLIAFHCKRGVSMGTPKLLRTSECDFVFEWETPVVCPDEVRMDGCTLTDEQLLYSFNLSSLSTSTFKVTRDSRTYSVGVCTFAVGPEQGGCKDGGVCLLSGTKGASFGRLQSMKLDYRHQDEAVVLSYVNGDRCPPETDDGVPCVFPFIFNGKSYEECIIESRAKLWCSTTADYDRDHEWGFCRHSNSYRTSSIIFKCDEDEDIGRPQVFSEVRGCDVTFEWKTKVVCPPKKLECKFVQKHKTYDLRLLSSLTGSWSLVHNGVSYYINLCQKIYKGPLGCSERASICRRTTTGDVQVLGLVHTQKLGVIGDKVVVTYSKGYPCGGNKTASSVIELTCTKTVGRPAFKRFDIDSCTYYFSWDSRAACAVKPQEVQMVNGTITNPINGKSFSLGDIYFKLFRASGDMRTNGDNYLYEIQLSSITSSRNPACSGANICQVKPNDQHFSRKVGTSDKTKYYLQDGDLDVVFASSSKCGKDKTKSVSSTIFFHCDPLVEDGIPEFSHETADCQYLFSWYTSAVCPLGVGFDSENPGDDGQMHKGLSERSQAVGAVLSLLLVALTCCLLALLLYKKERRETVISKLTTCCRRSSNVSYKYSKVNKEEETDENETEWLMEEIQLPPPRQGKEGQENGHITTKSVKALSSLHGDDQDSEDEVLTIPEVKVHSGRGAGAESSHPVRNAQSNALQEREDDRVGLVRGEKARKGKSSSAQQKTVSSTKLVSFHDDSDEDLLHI
Experimental: Surface Plasmon Resonance (SPR) Measurements. SPR measurements were performed on a Biacore T200 instrument (GE Healthcare). Recombinant human IGF-II R (CI-MPR) was purchased from R&D Systems. Approximately 7000 resonance units (RU) of CI-MPR was immobilized on a CM5 sensor chip in a sodium acetate buffer (25 μg/mL, pH 4.0) at 25° C., using the amine coupling kit provided by the manufacturer. Mannose 6-phosphates containing glycopeptides or glycoproteins were determined at 25° C. under a flow rate of 10 μL/min. HBS-P+ buffer (10 mM HEPES, 150 mM NaCl, 0.05% surfactant P20, pH 7.4) was used as sample buffer and running buffer. Association was measured for 3 min and dissociation for 10 min at the same flow rate (10 μL/min). […] Synthetic glycopeptide and glycoprotein analytes flowed over an immobilized chip with 2-fold serial dilution of the highest concentration of 4 μM (for glycopeptides) or 1 μM (for RNase B) or 250 nM (for rhGAA). Kinetic analyses were performed by global fitting of the binding data to a 1:1 Langmuir binding model using BIAcore T200 evaluation software.

B1: Glycoprotein 68: phosphorylated glycoprotein from GlcNAc-RNase B and oxazoline 8 under wild-type Endo-A catalysis (protein)
chain: KETAAAKFERQHMDSSTSAASSSNYCNQMMKSRNLTKDRCKPVNTFVHESLADVQAVCSQKNVACKNGQTNCYQSYSTMSITDCRETGSSKYPNCAYKTTQANKHIIVACEGNPYVPVHFDASV
modifications: Asn-34 carries GlcNAc extended with M6P tetrasaccharide oxazoline 8 (Man6P-α1,2-Man-α1,3-Man-β1,4-GlcNAc)
For the molecule B1, the Kd (as a rule, the free concentration of one partner at which half of the binding sites on the other are occupied at equilibrium, for simple one-to-one binding) was found to be 15.8 nM.
